Test results taken from patent US20230374147A1 (HUMMINGBIRD BIOSCIENCE PTE, published 2023).
Where two headings read alike, the source gives them in different places.

What was measured:
[1] = molecular target: T1, His-tagged human BCMA (Acro Biosystems, Cat. #BCA-H522y) (human, UniProt Q02223 1-54); test: BLI, His-tagged human BCMA on HIS1K tip
T1 construct: also called huBCMA; P1; not shown: His tag
T1 sequence: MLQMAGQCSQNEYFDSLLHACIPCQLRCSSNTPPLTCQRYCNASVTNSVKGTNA

[2] = molecular target: T1, His-tagged human BCMA (Acro Biosystems, …); test: BLI, His-tagged human BCMA on HIS1K tip, no APRIL; R2 0.9928
[3] = molecular target: T2, His-tagged cynomolgous macaque BCMA (Acro Biosystems, BCA-C52H7) (cynomolgus macaque, UniProt Q02223 1-54 (human entry)); test: BLI, His-tagged cynomolgus BCMA on HIS1K tip
T2 construct: Bought protein; also called cyno BCMA; CyBCMA; not shown: His tag

[4] = molecular target: T2, His-tagged cynomolgous macaque BCMA …; test: ELISA, coated His-tagged cynomolgus BCMA
[5] = molecular target: T2, His-tagged cynomolgous macaque BCMA …; test: BLI, His-tagged cynomolgus BCMA on HIS1K tip; R2 0.9552
[6] = molecular target: T3, human BCMA expressed on cells (human, UniProt Q02223 1-184); test: flow cytometry, H929 cells (BCMA-expressing)
T3 construct: the cell line is named under assay; also called wildtype human BCMA
T3 sequence: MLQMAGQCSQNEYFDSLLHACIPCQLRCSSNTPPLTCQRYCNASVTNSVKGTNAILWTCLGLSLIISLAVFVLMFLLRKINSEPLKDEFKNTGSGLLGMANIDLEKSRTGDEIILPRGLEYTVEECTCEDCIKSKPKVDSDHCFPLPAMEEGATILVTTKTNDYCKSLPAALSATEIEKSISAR

[7] = molecular target: T4, cynomolgous macaque BCMA expressed on CHOK1 cells; test: flow cytometry, CHOK1 cells transiently expressing cynomolgus BCMA
T4 construct: also called cyno BCMA on cells

[8] = molecular target: T5, recombinant his-tagged human TACI (Sinobiological cat #11937-H08H) (human, UniProt O14836 1-165); test: ELISA, coated His-tagged human TACI
T5 construct: Bought protein; also called Human TACI-His; huTACI; not shown: His tag
T5 sequence: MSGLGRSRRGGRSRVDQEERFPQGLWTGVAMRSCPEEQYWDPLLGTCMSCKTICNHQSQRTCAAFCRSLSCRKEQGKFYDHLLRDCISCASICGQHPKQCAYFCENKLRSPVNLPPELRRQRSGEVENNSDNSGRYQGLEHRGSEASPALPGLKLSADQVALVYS

[9] = molecular target: T1, His-tagged human BCMA (Acro Biosystems, …); test: BLI, His-tagged human BCMA on HIS1K tip; R2 0.9928
[10] = molecular target: T1, His-tagged human BCMA (Acro Biosystems, …); test: BLI, His-tagged human BCMA on HIS1K tip; R2 0.9939
[11] = molecular target: T1, His-tagged human BCMA (Acro Biosystems, …); test: BLI, His-tagged human BCMA on HIS1K tip, no APRIL; R2 0.9939
[12] = molecular target: T6, BCMA:APRIL 1:1 (human, UniProt Q02223;O75888); test: BLI, His-tagged human BCMA on tip, then human APRIL 3000 nM, then IgG; R2 0.9805
T6 construct: His-tagged recombinant;recombinant; also called human BCMA after incubation with human APRIL
T6 sequence (receptor, looked up): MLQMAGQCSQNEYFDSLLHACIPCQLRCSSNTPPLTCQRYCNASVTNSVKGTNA
T6 sequence (ligand, looked up): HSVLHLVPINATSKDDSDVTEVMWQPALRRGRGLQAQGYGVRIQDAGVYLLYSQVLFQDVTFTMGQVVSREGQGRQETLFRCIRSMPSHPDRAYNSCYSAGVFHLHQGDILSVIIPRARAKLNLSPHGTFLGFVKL

[13] = molecular target: T2, His-tagged cynomolgous macaque BCMA …; test: BLI, His-tagged cynomolgus BCMA on HIS1K tip; R2 0.9296
[14] = molecular target: T5, recombinant his-tagged human TACI …; test: ELISA, coated His-tagged human TACI; remark: listed apart in the source
[15] = molecular target: T1, His-tagged human BCMA (Acro Biosystems, …); test: ELISA, coated His-tagged human BCMA
[16] = molecular target: T1, His-tagged human BCMA (Acro Biosystems, …); test: BLI, His-tagged human BCMA on HIS1K tip; R2 0.9908
[17] = molecular target: T7, His-tagged mouse BCMA (Acro Biosystems, BCA-M52H3) (mouse, UniProt O88472 1-49); test: BLI, His-tagged mouse BCMA on HIS1K tip; R2 0.2661, below the filing's cut-off of 0.9
T7 construct: Bought protein; not shown: His tag
T7 chain: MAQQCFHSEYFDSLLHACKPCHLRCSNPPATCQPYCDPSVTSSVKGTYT

[18] = molecular target: T1, His-tagged human BCMA (Acro Biosystems, …); test: BLI, His-tagged human BCMA on HIS1K tip, no APRIL; R2 0.9908
[19] = molecular target: T4, cynomolgous macaque BCMA expressed on …; test: flow cytometry, CHOK1 cells transiently expressing cynomolgus BCMA; remark: listed apart in the source
[20] = molecular target: T7, His-tagged mouse BCMA (Acro Biosystems, …); test: BLI, His-tagged mouse BCMA on HIS1K tip
[21] = molecular target: T3, human BCMA expressed on cells; test: flow cytometry, HEK293 cells stably expressing human BCMA
[22] = molecular target: T8, Cyno TACI-His (Sino Biological, 90976-C08H) (cynomolgus macaque, UniProt G7PTR7 1-165); test: ELISA, coated Cyno TACI-His
T8 construct: Bought protein; also called cynomolgous macaque TACI; CyTACI
T8 sequence: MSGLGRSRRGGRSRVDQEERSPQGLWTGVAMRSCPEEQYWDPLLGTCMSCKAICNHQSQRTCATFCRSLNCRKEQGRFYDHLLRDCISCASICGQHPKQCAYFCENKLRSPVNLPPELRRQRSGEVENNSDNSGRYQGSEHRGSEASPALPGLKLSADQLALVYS

[23] = molecular target: T2, His-tagged cynomolgous macaque BCMA …; test: ELISA, coated Cyno BCMA-His
[24] = molecular target: T9, Human BCMA-His (Sino Biological, 10620-H08H) (human, UniProt Q02223 1-54); test: ELISA, coated Human BCMA-His
T9 construct: not shown: His tag
T9 sequence: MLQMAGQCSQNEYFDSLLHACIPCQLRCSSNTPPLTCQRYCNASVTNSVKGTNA

[25] = molecular target: T3, human BCMA expressed on cells; test: flow cytometry, fixed RPMI 8226 cells (BCMA+, TACI+: the cells carry both targets)
[26] = molecular target: T5, recombinant his-tagged human TACI …; test: ELISA, coated Human TACI-His
[27] = molecular target: T3, human BCMA expressed on cells; test: flow cytometry, H929 cells (BCMA+)
[28] = molecular target: T10, Human HER3-His (Sino Biological, 10201-H08H) (human, UniProt P21860 20-643); test: ELISA, coated His-tagged antigen
T10 construct: Specificity control; also called Human HERS-His

[29] = molecular target: T1, His-tagged human BCMA (Acro Biosystems, …); test: HDX-MS of the 1:1 complex against free BCMA

B1: 552-LN2-E6 hIgG1 (antibody, V domains shown)
VH: QIQLVQSGPELKKPGETVKISCMASGYTFTDYSVRWVKQAPGKGLEWMGWINTETGEPTYADDFKGRFAFSLETSASTAYLQINNLKNEDTATYFCAISYYYALDYWGHGTSVTVSS
VL: DIVLTQSPASLTVSLGQRATISCRASKSVSTSVYSFLHWYQQKPGQPPKLLIYLASNLESGVPARFSGSGSGTDFTLNIHPVEEEDAATYYCQHSRELPRTFGGGTKLEIKR
notes: Human-mouse chimeric antibody, human IgG1 format; also called [8]
[1]
  Human BCMA response: 2.37
[2]
  Kd: < 1 pM
[3]
  Cyno BCMA response: 1.55
[4]
  EC50 (read off the curve): ~0.08 µg/mL
[5]
  Kd: 38500 pM
[6]
  EC50 (read off the curve): ~0.3 µg/mL
[7]
  binding result: binds
[8]
  binding result: no binding (tested: 10 ug/ml)
[9]
  Kd: < 1 pM

B2: 552-LN1-F4 hIgG1 (antibody, V domains shown)
VH: QIQLVQSGPELKKPGETVKISCMASGYTFTDYSVRWVKQAPGKGLEWMGWINTETGEPTYAHDFKGRFAFSLETSASTAYLQINNLKDEDTSTYFCAISYYYALDYWGHGTSVTVSS
VL: DIVLTQSPASLTVSLGQRATISCRASKSVSTSGYNFLHWYQQKPGQPPKLLIYLASNLESGAPARFSGSGSGTDFTLNIHPVEEEDAATYYCQHSRELPRTFGGGTKLEIKR
notes: Human-mouse chimeric antibody, human IgG1 format; also called [7]
[1]
  Human BCMA response: 2.33
[3]
  Cyno BCMA response: 0.918
[10]
  Kd: < 1 pM
[11]
  Kd: < 1 pM
[12]
  Kd: 9610 pM
[6]
  EC50 (read off the curve): ~0.2 µg/mL
[7]
  binding result: binds
[8]
  binding result: no binding (tested: 10 ug/ml)
[13]
  Kd: 71000 pM

B3: 539-SP2-H3 hIgG1 (antibody, V domains shown)
VH: EVQLQQSGPELVKPGASVKMSCKASGYTFTSYVIHWVKQKPGQGLEWIGYVLPYNDVIKYNEKFKGKATLTSDKSSSTAYMDLSSLTSEDSAVYYCARWGDFDEGIWFPYWGQGTLVTVSA
VL: DVLMTQTPLSLPVSLGDHASVSCRSSQSIVHTDGNTYLEWYLQKPGQSPKLLIYKVSNRFSGVPDRFSGSGSGTDFTLKISRVEAEDLGVYYCFQGSHVPWTFGGGTKLEIKR
notes: Human-mouse chimeric antibody, human IgG1 format
[1]
  Human BCMA response: 2.36
[14]
  EC50 (read off the curve): ~0.7 µg/mL
[15]
  EC50 (read off the curve): ~0.01 µg/mL
[16]
  Kd: < 1 pM
[17]
  Kd: 7250 pM
[18]
  Kd: < 1 pM
[19]
  binding result: binds
[20]
  Mouse BCMA response: 0.29
[21]
  EC50 (read off the curve): ~0.06 µg/mL

B4: 1C8-6A3 hIgG1 (antibody, V domains shown)
VH: QVQLVQSGAEVKKPGASVKVSCKASGYTFTNYVMHWVKQKPGQGLEWMGYILPYNDGTKYAQKFQGKVTMTSDKSTSTVYMELSSLTSEDTAVYYCARYDYEGSFDYWGQGTLVTVSS
VL: DIQMTQSPSSLSASVGDRVTITCRASQDISNYLNWYQQKPGKAPKLLMCYTSRLHSGVPSRFSGSGSGTDFTLTISSLEQEDFATYYCQQGNTFPPTFGGGTKVEIKR
notes: also called [94]; hu1C8
[22]
  EC50: 28 pM
[23]
  binding result: binds
[24]
  EC50: 5 pM
[25]
  EC50: 238 pM
[26]
  EC50: 1320 pM
[27]
  EC50: 111 pM
[28]
  binding result: no binding (tested: 3 µg/ml (highest concentration))

B5: 1C8-402 hIgG1 (LALA) (antibody)
heavy: not shown
light: DIQMTQSPSSLSASVGDRVTITCRASQDISNYLSWYQQKPGKAPKLLMRYTSRLHSGVPSRFSGSGSGTDFTLTISSLEQEDFATYYCQQGNLFPPTFGGGTKVEIKRTVAAPSVFIFPPSDEQLKSGTASVVCLLNNFYPREAKVQWKVDNALQSGNSQESVTEQDSKDSTYSLSSTLTLSKADYEKHKVYACEVTHQGLSSPVTKSFNRGEC
notes: also called S1
[29]
  binding result: binds
